Target: human complement C3a (human, UniProt P01024 672-748)
Experiment: SPR

Chain of human complement C3a (P01024 672-748): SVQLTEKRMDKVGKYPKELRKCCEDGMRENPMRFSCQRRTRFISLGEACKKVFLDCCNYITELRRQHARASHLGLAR

B1: His-ISG65_(18-363)-Avi, C-terminally biotinylated (domain or fragment)
chain: LLVIGSEDNRVPGDKKLTKEGAAALCKMKHLADKVAKERSQELKDRTQNFAGYIEFELYRIDYWLEKLNGPKGRKDGYAKLSDSDIEKVKEIFNKAKDGITKQLPEAKKAGEEAGKLHTEVKKAAENARGQDLDDDTAKSTGLYRVLNWYCITKEERHNATPNCDGIQFRKHYLSVNRSAIDCSSTSYEENYDWSANALQVALNSWEDVKPKKLESAGSDKNCNIGQSSESHPCTMTEEWQTPYKETVEKLRELEDAYQRGKKAHDAMLGYANTAYAVNTKVEQEKPLTEVIAAAKEAGKKGAKIIIPAAAPATPTNSTKNDDSAPTEHVDRGIATNETQVEVGID
modifications: biotin on the C-terminal Avi-tag (site-specific Avi-tag biotinylation)
- Kd: 18 µM
